Test results from patent US20160228506A1, “Compositions and Formulations for Prevention and Reduction of Tumorigenesis, Cancer Cell Proliferation and Invasion, and Methods of Production and Use Thereof in Cancer Treatment” (PRONUTRIA, INC., priority 2013, published 2016).

Experiment: SGF digest of 168 nutritive polypeptide library, intact protein by LC-MS/MS
Type: in vitro ADME
Conditions: 168 nutritive polypeptide library SGF digest, LC-MS/MS spectral counts
Method: The in vitro intact half-life of multiple polypeptides in a complex mixture was determined using the simulated gastric in vitro digestion described above. Briefly, the 168 nutritive polypeptide library was generated as described herein by cloning, transforming, and expressing a gene library encoding 168 proteins as a single mixture. The recombinantly expressed proteins were purified from host cell proteins by IMAC purification as described herein.
The 168 Protein Library was treated with SGF as described above and the t=0 and t=10 min samples were analyzed for intact protein by LC-MS/MS. To begin, 10 μg of sample was loaded onto a 10% SDS-PAGE gel (Invitrogen) and run approximately 5 cm into the gel. The gel was excised into ten fractions from 100 kD to the dye front and the gel slices were processed by washing with 25 mM ammonium bicarbonate, followed by acetonitrile. Gel fractions were then reduced with 10 mM dithiothreitol at 60° C., followed by alkylation with 50 mM iodoacetamide at room temperature. Finally, the samples were digested with trypsin (Promega) at 37° C. for 4 h and the digestions were quenched with the addition of formic acid. The samples were then analyzed by nano LC/MS/MS using an EasynLC 1000 HPLC system interfaced to a ThermoFisher Q Exactive. Peptides were loaded on a trapping column and eluted over a 75 μm analytical column at 350 nL/min; both columns were packed with PepMap C18 3 μm resin (ThemoFisher). A 1 hour gradient was employed. The mass spectrometer was operated in data-dependent mode, with MS and MS/MS performed in the Orbitrap at 70,000 FWHM resolution and 17,500 FWHM resolution, respectively. The fifteen most abundant ions were selected for MS/MS. Data were searched against an appropriate database using Mascot to identify peptides. Mascot DAT files were parsed into the Scaffold software for validation, filtering and to create a nonredundant list per sample. Data were filtered at 1% protein and peptide false discovery rate (FDR) and requiring at least two unique peptides per protein. A full list of detected proteins and their spectral counts (SpC) was generated and reported as a function of each collected gel fraction. SpC are a count of the number of spectra identified for a given protein and are used as a measure of relative protein abundance (Liu, H. et al., Analytical Chemistry 2004, 76: 4193-4201). To calculate the percentage of intact protein remaining at the 10 min time point of the SGF digest the number of SpC representative of intact peptide in the t=10 min sample were divided by the number of SpC representative of intact peptide in the t=0 min sample. The number of SpC representative of intact peptide was defined as the sum of the SpC in the fraction with the highest number of SpC assigned to that protein in the t=0 min sample and the two flanking fractions.

| Molecule | % Intact Protein at 10 min [%] |
| --- | --- |
| SEQID-00484: protein of the 168 nutritive polypeptide library (protein, listed as Saccharomyces cerevisiae, source: /note="strain ATCC 204508 / S288c", protein of the 168 nutritive polypeptide library) MSEKFPPLEDQNIDFTPNDKKDDDTDFLKREAEILGDEFKTEQDDILETEASPAKDDDEIRDFEEQFPDINSANGAVSSDQNGSATVSSGNDNGEADDDFSTFEGANQSTESVKEDRSEVVDQWKQRRAVEIHEKDLKDEELKKELQDEAIKHIDDFYDSYNKKKEQQLEDAAKEAEAFLKKRDEFFGQDNTTWDRALQLINQDDADIIGGRDRSKLKEILLRLKGNAKAPGA | 0 |
| SEQID-00489: protein of the 168 nutritive polypeptide library (protein, listed as Saccharomyces cerevisiae, source: /note="strain ATCC 204508 / S288c", protein of the 168 nutritive polypeptide library) MSVEEVSKKFEENVSVDDTTATPKTVLSDSAHFDVKHPLNTKWTLWYTKPAVDKSESWSDLLRPVTSFQTVEEFWAIIQNIPEPHELPLKSDYHVFRNDVRPEWEDEANAKGGKWSFQLRGKGADIDELWLRTLLAVIGETIDEDDSQINGVVLSIRKGGNKFALWTKSEDKEPLLRIGGKFKQVLKLTDDGHLEFFPHSSANGRHPQPSITL | 0 |
| SEQID-00495: protein of the 168 nutritive polypeptide library (protein, listed as Vitis vinifera) MEKNVESDPNPPLASGPEFPPATTPADVKNDVALEKSVVPPPEVKADESKALAVVEKTPDSAAKKTSGGSFERDVALANLEKEKQLSFIRAWEESEKSKVDNKAQKKLSDVCAWENSKKAAVEANLKKIEEELEKKKAEYAEKMKNKVALIHKQAEEKKAMIEARRGEEFLKAEEMAAKFRATGQTPKKVLGCFGG | 0 |
| SEQID-00497: protein of the 168 nutritive polypeptide library (protein, listed as Saccharomyces cerevisiae, source: /note="strain ATCC 204508 / S288c", protein of the 168 nutritive polypeptide library) MSIASYAQELKLALHQYPNFPSEGILFEDFLPIFRNPGLFQKLIDAFKLHLEEAFPEVKIDYIVGLESRGFLFGPTLALALGVGFVPVRKAGKLPGECFKATYEKEYGSDLFEIQKNAIPAGSNVIIVDDIIATGGSAAAAGELVEQLEANLLEYNFVMELDFLKGRSKLNAPVFTLLNAQKEALKK | 20.3 |
| SEQID-00507: protein of the 168 nutritive polypeptide library (protein, listed as Agaricus bisporus, source: /note="var. bisporus"; source: /note="strain H97 / ATCC MYA-4626 / FGSC 10389", protein of the 168 nutritive polypeptide library) MISFYDLTAKPPFKTVSVNSWKIRYALNFKNLPYKTLYFEFPDMAKEFSKVGIPPSSVSADGPSYTVPSLIDDSTNTRISESFTIALYLDKQYPDAPKLFPAGTEALQAAFHEEFYKVMSPTFPFFFPKAGNVLNKPSDDYFAVTRAKMFGMSMADFEPKGEARVEAWKKVKDAFDTLESWMSKTSGPFFMGETVSFADFVIGGLLNEFSMCMGENSPEWQDVLKWNNGRWATLKKKLEVYANTDQ | 0 |
| SEQID-00509: protein of the 168 nutritive polypeptide library (protein, listed as Gadus morhua) MSDTEDVDQVEDEKPKFKPSAPKIPDGEKVDFDDIQKKRQNKDLSELQGLIDAHFEGRKKEEEELIALKERIEKRRAERAEQQRIRSEKDKERQARREEERLKREEADAKKKMEEDAKKKSALSNMGSNYSSHLQKADQKRGGGKKETEREKKKKILAARRKGLNIDHLNEDKLKDKINELHEWMSTLESEKFDHMERLNRQKYEVTTLRKRVEELSKFSKKGKTVRRK | 36.4 |
| SEQID-00515: protein of the 168 nutritive polypeptide library (protein, listed as Saccharomyces cerevisiae, source: /note="strain ATCC 204508 / S288c", protein of the 168 nutritive polypeptide library) MSNLLNKFADKLHGNDHDERYEDDNDDQTRQQRHEKHQQREFRNQGSKADPYGEENQGNFPQRQQPQSNLGGNTQFGGNDFQQQTTDYTAGTGGGTYTQTYRETNTQGQLDDDEDDDFLTSGQQQKQGRTRGAQSNRYQSSNIGSGRRDLSGSGNDEYDDDSGNQGVW | 17 |
